In paper PMC4747346, “Interaction of RECQ4 and MCM10 is important for efficient DNA replication origin firing in human cells” (Oncotarget, 2015):

Target: T1, HIS-RECQ4 (full length, recombinant) (human, UniProt O94761 1-1208)
T1 construct: RECQ4; full length construct, a gift from Dr Yilun Liu; the construct itself is not described; also called H-R4; source: E. coli Rosetta pLysS, purified (HQ sepharose flow-through, PEI, HiTrap HP with imidazole, FLAG M2 beads)
T1 sequence (looked up): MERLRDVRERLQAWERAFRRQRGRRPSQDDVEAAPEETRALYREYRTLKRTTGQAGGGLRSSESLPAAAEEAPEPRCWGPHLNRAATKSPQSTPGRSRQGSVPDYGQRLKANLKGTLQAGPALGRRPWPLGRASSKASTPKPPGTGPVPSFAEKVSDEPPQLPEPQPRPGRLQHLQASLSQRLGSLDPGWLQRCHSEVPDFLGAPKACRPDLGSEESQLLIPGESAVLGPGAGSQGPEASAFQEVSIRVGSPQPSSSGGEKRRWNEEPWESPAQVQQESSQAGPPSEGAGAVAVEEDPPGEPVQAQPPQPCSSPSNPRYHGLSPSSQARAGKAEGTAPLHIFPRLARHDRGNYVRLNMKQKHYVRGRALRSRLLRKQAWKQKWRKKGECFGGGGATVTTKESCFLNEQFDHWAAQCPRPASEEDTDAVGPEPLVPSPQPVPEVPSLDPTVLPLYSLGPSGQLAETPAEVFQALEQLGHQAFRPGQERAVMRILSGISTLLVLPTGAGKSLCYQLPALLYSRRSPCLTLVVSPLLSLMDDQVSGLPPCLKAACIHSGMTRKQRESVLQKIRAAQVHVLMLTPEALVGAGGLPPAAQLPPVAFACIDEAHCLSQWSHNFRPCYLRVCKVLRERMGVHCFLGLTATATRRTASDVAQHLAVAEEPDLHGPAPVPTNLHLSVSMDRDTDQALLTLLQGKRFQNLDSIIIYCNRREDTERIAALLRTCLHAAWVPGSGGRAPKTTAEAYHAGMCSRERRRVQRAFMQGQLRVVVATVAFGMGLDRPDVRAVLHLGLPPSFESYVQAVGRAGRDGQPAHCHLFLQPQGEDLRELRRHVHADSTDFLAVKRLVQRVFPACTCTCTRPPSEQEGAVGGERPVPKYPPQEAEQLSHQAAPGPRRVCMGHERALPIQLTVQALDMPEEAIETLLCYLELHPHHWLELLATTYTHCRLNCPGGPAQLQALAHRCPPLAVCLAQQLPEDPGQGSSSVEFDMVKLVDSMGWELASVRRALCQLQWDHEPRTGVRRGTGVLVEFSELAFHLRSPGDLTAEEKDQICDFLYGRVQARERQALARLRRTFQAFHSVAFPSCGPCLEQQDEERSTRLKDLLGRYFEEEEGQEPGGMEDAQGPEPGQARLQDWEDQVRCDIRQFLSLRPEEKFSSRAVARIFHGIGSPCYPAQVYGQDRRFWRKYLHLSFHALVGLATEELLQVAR
Assay: SPR; BIAcore T100, 25°C; GST-MCM10 amine-coupled to a CM3 chip (500 response units); RECQ4 as analyte at 1, 0.5, 0.25, 0.125, 0.06 and 0.03 μM; flow 30 and 60 μl/min; HBS buffer (10 mM HEPES pH 7.4, 150 mM NaCl, 0.5 mM TCEP, 0.05% Tween20); global fit to a two state model
Settings: both partners purified

Kd: 170 ± 200 nM
B1: GST-MCM10 (natural protein, human, UniProt Q7L590 1-875, looked up)
chain: MDEEEDNLSLLTALLEENESALDCNSEENNFLTRENGEPDAFDELFDADGDGESYTEEADDGETGETRDEKENLATLFGDMEDLTDEEEVPASQSTENRVLPAPAPRREKTNEELQEELRNLQEQMKALQEQLKVTTIKQTASPARLQKSPVEKSPRPPLKERRVQRIQESTCFSAELDVPALPRTKRVARTPKASPPDPKSSSSRMTSAPSQPLQTISRNKPSGITRGQIVGTPGSSGETTQPICVEAFSGLRLRRPRVSSTEMNKKMTGRKLIRLSQIKEKMAREKLEEIDWVTFGVILKKVTPQSVNSGKTFSIWKLNDLRDLTQCVSLFLFGEVHKALWKTEQGTVVGILNANPMKPKDGSEEVCLSIDHPQKVLIMGEALDLGTCKAKKKNGEPCTQTVNLRDCEYCQYHVQAQYKKLSAKRADLQSTFSGGRIPKKFARRGTSLKERLCQDGFYYGGVSSASYAASIAAAVAPKKKIQTTLSNLVVKGTNLIIQETRQKLGIPQKSLSCSEEFKELMDLPTCGARNLKQHLAKATASGIMGSPKPAIKSISASALLKQQKQRMLEMRRRKSEEIQKRFLQSSSEVESPAVPSSSRQPPAQPPRTGSEFPRLEGAPATMTPKLGRGVLEGDDVLFYDESPPPRPKLSALAEAKKLAAITKLRAKGQVLTKTNPNSIKKKQKDPQDILEVKERVEKNTMFSSQAEDELEPARKKRREQLAYLESEEFQKILKAKSKHTGILKEAEAEMQERYFEPLVKKEQMEEKMRNIREVKCRVVTCKTCAYTHFKLLETCVSEQHEYHWHDGVKRFFKCPCGNRSISLDRLPNKHCSNCGLYKWERDGMLKEKTGPKIGGETLLPRGEEHAKFLNSLK
notes: MCM10, human; construct pGEX-4T-1-MCM10, a gift from Dr. Yilun Liu; also called G-M10; pGEX-4T-1-MCM10; source: E. coli, purified on GSH beads (kept on the beads for pull-downs; eluted with reduced glutathione for the peptide array)
